This data set concerns the molecule itself. The experiment in a line: crystal structure; Se-Met Spr0693_(59–324) T197M/I317M, hanging drop at 12 °C, sodium acetate pH 4.5; SAD, 3.0 Å; three molecules in the asymmetric unit.

B1: Spr0693_(59–324) T197M/I317M, selenomethionine-labelled (domain or fragment, Streptococcus pneumoniae R6, UniProt Q8DQF9 59-324, looked up)
chain: SVLLSGTVTAKNEQYVYFDASKGDLDEILVSVGDKVSEGQALVKYSSSEAQAAYDSASRAVARADRHINELNQARNEAASAPAPQLPAPVGGEDATVQSPTPVAGNSVASIDAQLGDARDARADAAAQLSKAQSQLDAMTVLSTLEGTVVEVNSNVSKSPTGASQVMVHIVSNENLQVKGELSEYNLANLSVGQEVSFTSKVYPDKKWTGKLSYISDYPKNNGEAASPAAGNNTGSKYPYTIDVTGEVGDLKQGFSVNMEVKSKTK
modifications: selenomethionine instead of methionine
notes: Spr0693, Streptococcus pneumoniae R6, residues Ser59–Lys324 (without the TM and the membrane-proximal domain); Plasmid built on the full-length spr0693 plasmid (C-terminal tag) and purified on Ni-NTA; The structure was solved from a Se-Met crystal of the T197M/I317M double mutant; residues Pro142–Gly163 are not traced; also called truncated Spr0693 (Ser59–Lys324); TM&MP-truncated Spr0693; source: …
As to B1, the stoichiometry N (as a rule, a count of units in the complex or per binding partner) came out at 6.
